The values below come from patent US20180273635A1 (Zymeworks, published 2018).

Residue numbers refer to the chain shown, from its start. Names may count otherwise.

Sequences and labels used below:
B1: Variant 14019 (antibody, name in Kabat numbering, V domains shown)
VH: EVQLVESGGGLVQPGGSLRLSCAASGFTFQDYTMDWVRQAPGKGLEWVGDVNPNSGGSIYNQRFKGRFTFSVDRSWNTLYLQMNSLRAEDTAVYYCARNLGPSFYFDYWGQGTLVTVSS
VL: DIQMTQSPSSLSASVGDRVTITCKASQDVSIGVAWYQQKPGKAPKLLIYSASYRYTGVPSRFSGSGSGTDFTLTISSLQPEDFATYYCQQYYIYPYTFGQGTKVEIKR
notes: also called v14019
B2: Variant 14018 (antibody, name in Kabat numbering, V domains shown)
VH: B1 VH with Q30T
VL: B1 VL with Y49W
notes: also called v14018
B3: variant 12514 (antibody, human IgG1, kappa)
heavy: EVQLVESGGGLVQPGGSLRLSCAASGFTFTDYTMDWVRQAPGKGLEWVADVNPNSGGSIYNQRFKGRFTLSVDRSKNTLYLQMNSLRAEDTAVYYCARNLGPWFYFDYWGQGTLVTVSSASTKGPSVFPLAPSSKSTSGGTAALGCLVKDYFPEPVTVSWNSGALTSGVHTFPAVLQSSGLYSLSSVVTVPSSSLGTQTYICNVNHKPSNTKVDKKVEPKSCDKTHTCPPCPAPELLGGPSVFLFPPKPKDTLMISRTPEVTCVVVDVSHEDPEVKFNWYVDGVEVHNAKTKPREEQYNSTYRVVSVLTVLHQDWLNGKEYKCKVSNKALPAPIEKTISKAKGQPREPQVYVYPPSRDELTKNQVSLTCLVKGFYPSDIAVEWESNGQPENNYKTTPPVLDSDGSFALVSKLTVDKSRWQQGNVFSCSVMHEALHNHYTQKSLSLSPG
light: not shown
chain: not shown
notes: OA pertuzumab variant, HC S99W (Kabat); also called v12514
B4: variant 12536 (antibody, human IgG1, kappa)
heavy: B3 heavy with W103S
light: not shown
chain: not shown
notes: OA pertuzumab variant, LC Y96G (Kabat); also called v12536
B5: variant 12520 (antibody, human IgG1, kappa)
heavy: B3 heavy with T30R, G57Y, W103S
light: not shown
chain: not shown
notes: also called v12520
B6: variant 12540 (antibody, human IgG1, kappa)
heavy: B3 heavy with W103S
light: not shown
chain: not shown
notes: OA pertuzumab variant, LC Y96V (Kabat); also called v12540
B7: variant 12538 (antibody, human IgG1, kappa)
heavy: B3 heavy with W103S
light: not shown
chain: not shown
notes: OA pertuzumab variant, LC Y49W (Kabat); also called v12538
B8: Variant 12505 (antibody, human IgG1, kappa)
heavy: B3 heavy with K76E, W103S
light: not shown
chain: not shown
notes: OA (one-armed) format; clones 7843, 1811, 4372; also called v12505
B9: Variant 12479 (antibody, human IgG1, kappa)
heavy: B3 heavy with T30N, W103S
light: not shown
chain: not shown
notes: OA (one-armed) format; clones 7814, 1811, 4372; also called v12479
B10: Variant 12506 (antibody, human IgG1, kappa)
heavy: B3 heavy with K76W, W103S
light: not shown
chain: not shown
notes: OA (one-armed) format; clones 7844, 1811, 4372; also called v12506
B11: Variant 12610 (antibody, human IgG1, kappa)
heavy: B3 heavy with T30A, W103S
light: not shown
chain: not shown
notes: OA (one-armed) format; clones 3376, 1811, 4372; also called v12610
B12: Variant 12536 (antibody, human IgG1, kappa)
heavy: B3 heavy with W103S
light: not shown
chain: not shown
notes: OA (one-armed) format; clones 3057, 7917, 4372; also called v12536
B13: Variant 12490 (antibody, human IgG1, kappa)
heavy: B3 heavy with G57Y, W103S
light: not shown
chain: not shown
notes: OA (one-armed) format; clones 7825, 1811, 4372; also called v12490
B14: Variant 12538 (antibody, human IgG1, kappa)
heavy: B3 heavy with W103S
light: not shown
chain: not shown
notes: OA (one-armed) format; clones 3057, 7919, 4372; also called v12538
B15: Variant 12478 (antibody, human IgG1, kappa)
heavy: B3 heavy with T30Y, W103S
light: not shown
chain: not shown
notes: OA (one-armed) format; clones 7813, 1811, 4372; also called v12478
B16: Variant 12502 (antibody, human IgG1, kappa)
heavy: B3 heavy with S75W, W103S
light: not shown
chain: not shown
notes: OA (one-armed) format; clones 7840, 1811, 4372; also called v12502
B17: Variant 12491 (antibody, human IgG1, kappa)
heavy: B3 heavy with G57F, W103S
light: not shown
chain: not shown
notes: OA (one-armed) format; clones 7826, 1811, 4372; also called v12491
B18: Variant 12482 (antibody, human IgG1, kappa)
heavy: B3 heavy with T30F, W103S
light: not shown
chain: not shown
notes: OA (one-armed) format; clones 7817, 1811, 4372; also called v12482
B19: Variant 12514 (antibody, human IgG1, kappa)
heavy: B3 heavy
light: not shown
chain: not shown
notes: OA (one-armed) format; clones 7852, 1811, 4372; also called v12514
B20: Variant 12480 (antibody, human IgG1, kappa)
heavy: B3 heavy with T30Q, W103S
light: not shown
chain: not shown
notes: OA (one-armed) format; clones 7815, 1811, 4372; also called v12480

The first experiment deals with T1, HER2 expressed on the surface of cells (human, UniProt P04626 23-1255). The experiment is described as follows: cell-based or functional assay.
Take B1: the “growth inhibition span (percentage of cells killed), MDA-MB-175 cells” value worked out at 85%.

For B2, the “growth inhibition span (percentage of cells killed), MDA-MB-175 cells” value was 85%.

The next experiment has as its target T1, HER2 expressed on the surface of cells. Briefly: flow cytometry on BT474 cells, n=1; B50 = concentration at 50% of Bmax. For orientation: Flow cytometry measures light scatter and fluorescence of single cells or particles in a stream.
Protocol: (§1) Binding of the test antigen-binding constructs to the surface of HER2+ cells was determined by flow cytometry. Cells were washed with PBS and resuspended in DMEM at 1×10⁵ cells/100 μl. 100 μl cell suspension was added into each microcentrifuge tube, followed by 10 μl/tube of the antigen-binding constructs. The tubes were incubated for 2 hr at 4° C. on a rotator. The microcentrifuge tubes were centrifuged for 2 min 2000 RPM at room temperature and the cell pellets washed with 500 μl media. Each cell pellet was resuspended in 100 μl of fluorochrome-labelled secondary antibody diluted in media to 2 μg/sample. The samples were then incubated for lhr at 4° C. on a rotator. After incubation, the cells were centrifuged for 2 min at 2000 rpm and washed in media. The cells were resuspended in 500 μl media, filtered, transferred to a tube containing 5 μl propidium iodide (PI) and analyzed on a BD LSR II flow cytometer according to the manufacturer's instructions. The B50 of the tested antigen-binding constructs was assessed by FACS with data analysis and curve fitting performed in GraphPad Prism. The experiment was carried out once (n=1) in SKBr3 cells, and twice (n=2) in SKOV3, MCF7, and BT-474 cells.
(§2) The experiment was performed once (n=1) in each cell line.
In turn, B1 yielded a B50 of 2.9 nM.

B2 came in with a B50 of 2.4 nM.

The next experiment deals with T2, Recombinant human HER2 (human, UniProt P04626 23-652).
T2 construct: extracellular domain; analyte of the SPR assays; also called HER2 ECD; ECD2 of HER2
The experiment is described as follows: SPR, variant captured on anti-human Fc, HER2 flowed, 25 C, post-SEC. A general note: In SPR one partner is held on a chip, and binding of the other changes the refractive index at the surface.
Protocol: (§3) The affinity towards HER2 ECD of the samples was measured by SPR on a Biacore T200 as follows. Between 2000 and 4000 RU of anti-human Fc injected at concentration between 5 and 10 μg/ml was immobilized on a CM5 chip using standard amine coupling. Antigen-binding constructs were captured on the anti-human Fc (injected at concentration at 0.51 microg/mL in PBST, 1 min at 10 microl/min) at response levels ranging from 120-270 RU. […] HER2 dilutions were analyzed in duplicates. Sensograms were fit globally to a 1: 1 Langmuir binding model, using the software provided with the Biacore T200. All experiments were conducted at 25° C.
(§4) The affinity of antigen-binding constructs in OA format was determined by SPR following protein A purification. […] Antigen-binding constructs in FSA format were purified by protein A affinity and SEC prior to assessment of affinity by SPR.
A word on the Kd: it is a measure of binding affinity in units of concentration. B3: the equilibrium dissociation constant (Kd) turned out to be 4.6 nM.

For B4, the Kd came to 5.2 nM.

As to B5, the Kd is 6.6 nM.

B6: the Kd is 11 nM.

On to B7, for which the Kd was determined as 4.4 nM.

The target in another experiment is T1, HER2 expressed on the surface of cells. Briefly: flow cytometry on SKBR3 cells, n=1.
Protocol: as §1, §2
B1 yielded a Bmax of 29000 MFI.

Molecule B2 displayed a Bmax of 32000 MFI.

For the next experiment, the target named is T2, Recombinant human HER2. Briefly: SPR, post-SEC; ratio to WT v10013.
Protocol: as §3, §4
For the molecule B3, the “Ka, mut/Ka, WT” value came out at 4.5.

Consider B4, for which the “Ka, mut/Ka, WT” value came to 4.

For the molecule B5, the “Ka, mut/Ka, WT” value came out at 3.1.

With B6, the “Ka, mut/Ka, WT” value is 1.9.

On to B7, for which the “Ka, mut/Ka, WT” value was determined as 4.8.

In a further experiment the target is T1, HER2 expressed on the surface of cells. Briefly: flow cytometry on MCF7 cells (low HER2), n=1; B50 = concentration at 50% of Bmax.
Protocol: as §1, §2
As to B1, the B50 was determined as 1.4 nM.

Regarding B2, the B50 was 0.9 nM.

The target in another experiment is T3, Recombinant human HER2 (human, UniProt P04626 23-652).
T3 construct: extracellular domain; Analyte of the SPR assays; also called HER2 ECD; ECD2 of HER2
The experiment is described as follows: calculated from the SPR Ka ratio to WT, -RTln(Ka,mut/Ka,WT), 298 K.
For B8, the ΔΔG is -0.8 kcal/mol.

For the molecule B9, the ΔΔG was -0.9 kcal/mol.

B10: the ΔΔG is -2 kcal/mol.

Take B11: the ΔΔG is -0.9 kcal/mol.

On to B12, for which the ΔΔG was -0.8 kcal/mol.

With B13, the ΔΔG was -0.6 kcal/mol.

B14: the ΔΔG was -0.9 kcal/mol.

In the case of B15, the ΔΔG is -0.8 kcal/mol.

As for B16, the ΔΔG was -1 kcal/mol.

For B17, the ΔΔG is -0.4 kcal/mol.

Regarding B18, the ΔΔG is -0.6 kcal/mol.

In the case of B19, the ΔΔG is -0.9 kcal/mol.

Regarding B20, the ΔΔG was -0.9 kcal/mol.

A further experiment addresses T1, HER2 expressed on the surface of cells. Briefly: cell-based or functional assay. This is another data set of the same source.
For the molecule B1, the “growth inhibition IC50 (potency), BT474 cells + EGF” value was found to be 1.1 nM; the “growth inhibition span (percentage of cells killed), BT474 cells + EGF” value was found to be 33%; the “growth inhibition span ratio to WT, BT474 cells + EGF” value was 1.8 fold.

On to B2, for which the “growth inhibition IC50 (potency), BT474 cells + EGF” value was found to be 1.7 nM; the “growth inhibition span (percentage of cells killed), BT474 cells + EGF” value is 33%; the “growth inhibition span ratio to WT, BT474 cells + EGF” value amounted to 1.8 fold.

A further experiment has the same target. The experiment is described as follows: flow cytometry on BT474 cells, n=1.
Protocol: as §1, §2
Turning to B1, the Bmax is 23000 MFI.

Consider B2, for which the Bmax was 22000 MFI.

The target is the same in a further experiment. The experiment is described as follows: flow cytometry on MCF7 cells (low HER2), n=1.
Protocol: as §1, §2
B1 returned a Bmax of 670 MFI.

Molecule B2 showed a Bmax of 680 MFI.

The target of another experiment is T2, Recombinant human HER2. The experiment is described as follows: SPR, pre-SEC; ratio to WT v10013.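 Further: SPR on Biacore T200 at 25 °C, constructs captured via anti-human Fc on CM5 chip, HER2 ECD as analyte, 1:1 Langmuir global fit, after protein A purification.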
Regarding B3, the “Ka, mut/Ka, WT” value was determined as 5.8.

As for B4, the “Ka, mut/Ka, WT” value came out at 4.1.

On to B5, for which the “Ka, mut/Ka, WT” value was found to be 3.6.

On to B6, for which the “Ka, mut/Ka, WT” value stood at 1.6.

As to B7, the “Ka, mut/Ka, WT” value was found to be 4.2.

A further experiment deals with T1, HER2 expressed on the surface of cells. Briefly: cell-based or functional assay. The source holds these as a separate data set.
B1: the “growth inhibition IC50 (potency), SKBR3 cells” value stood at 0.25 nM; the “growth inhibition span (percentage of cells killed), SKBR3 cells” value was 25%; the “growth inhibition span ratio to WT, SKBR3 cells” value amounted to 1.5 fold.

B2: the “growth inhibition IC50 (potency), SKBR3 cells” value is 0.28 nM; the “growth inhibition span (percentage of cells killed), SKBR3 cells” value came to 29%; the “growth inhibition span ratio to WT, SKBR3 cells” value was 1.7 fold.

The target in a further experiment is T2, Recombinant human HER2. Briefly: SPR, variant captured on anti-human Fc, HER2 flowed, 25 C, pre-SEC.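 Further: HER2 extracellular domain binding on Biacore T200, CM5 chip with amine-coupled anti-human Fc, duplicate antigen dilutions, global 1:1 Langmuir fit, measured after protein A purification.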
As for B3, the Kd was determined as 3.4 nM.

For B4, the Kd was 4.8 nM.

As to B5, the dissociation constant (Kd) came out at 5.4 nM.

Take B6: the Kd is 12 nM.

Take B7: the Kd was determined as 4.7 nM.

The target of the next experiment is T1, HER2 expressed on the surface of cells. Briefly: flow cytometry on SKBR3 cells, n=1; B50 = concentration at 50% of Bmax.
Protocol: as §1, §2
On to B1, for which the B50 was 14 nM.

With B2, the B50 came out at 8.4 nM.

For a further experiment the target is unchanged. The experiment is described as follows: cell-based or functional assay. This is another data set of the same source.
Turning to B1, the “growth inhibition IC50 (potency), NCI-N87 cells, 5 days” value was found to be 4.1 nM; the “growth inhibition span (percentage of cells killed), NCI-N87 cells” value stood at 37%; the “increase in efficacy with respect to the WT, NCI-N87 cells” value amounted to 2.2 fold; the “increase in potency with respect to the WT, NCI-N87 cells” value is 2.2 fold.

In the case of B2, the “growth inhibition IC50 (potency), NCI-N87 cells, 5 days” value worked out at 2.1 nM; the “growth inhibition span (percentage of cells killed), NCI-N87 cells” value came to 32%; the “increase in efficacy with respect to the WT, NCI-N87 cells” value was determined as 1.9 fold; the “increase in potency with respect to the WT, NCI-N87 cells” value came to 4.3 fold.

The target in the next experiment is T3, Recombinant human HER2. Briefly: SPR post-SEC (value taken over from Table 5); Ka ratio to WT v10013.
Protocol: as §3, §4
Turning to B8, the “Ka, mut/Ka, WT” value stood at 3.7 fold.

For B9, the “Ka, mut/Ka, WT” value was determined as 4.7 fold.

As for B10, the “Ka, mut/Ka, WT” value amounted to 30.6 fold.

As for B11, the “Ka, mut/Ka, WT” value was 4.5 fold.

As to B12, the “Ka, mut/Ka, WT” value turned out to be 4 fold.

With B13, the “Ka, mut/Ka, WT” value came to 2.7 fold.

For B14, the “Ka, mut/Ka, WT” value worked out at 4.8 fold.

Regarding B15, the “Ka, mut/Ka, WT” value turned out to be 3.6 fold.

Take B16: the “Ka, mut/Ka, WT” value came out at 5.3 fold.

For the molecule B17, the “Ka, mut/Ka, WT” value turned out to be 2.1 fold.

On to B18, for which the “Ka, mut/Ka, WT” value was 2.9 fold.

Regarding B19, the “Ka, mut/Ka, WT” value is 4.5 fold.

Take B20: the “Ka, mut/Ka, WT” value was determined as 4.7 fold.

A further experiment deals with T1, HER2 expressed on the surface of cells. The experiment is described as follows: cell-based or functional assay. The source holds these as a separate data set.
Take B1: the “growth inhibition IC50 (potency), BT474 cells” value is 0.51 nM; the “growth inhibition span (percentage of cells killed), BT474 cells” value came to 32%; the “growth inhibition span ratio to WT, BT474 cells” value is 3 fold.

Consider B2, for which the “growth inhibition IC50 (potency), BT474 cells” value is 0.66 nM; the “growth inhibition span (percentage of cells killed), BT474 cells” value turned out to be 30%; the “growth inhibition span ratio to WT, BT474 cells” value turned out to be 2.8 fold.
